Target: Haemoglobin (Hb) (UniProt P69905;P68871 2-142;2-147)
Assay: differential pulse voltammetry (electrochemical aptasensor); aptamer immobilized on electrode; DPV in 10 mM Tris-HCl (stated for clinical-range test; pH and temperature not given); EIS in 5 mM [Fe(CN)6]3-/4-, 0.1 M KCl; aptamer loaded in 5 mM MgCl2, 10 mM Tris-HCl, electrodes rinsed with 0.1 M PBS pH 6.5, 1 mM MgCl2
Settings: protein: commercial; chain copies: 2;2; label: 5' ferrocene; single strand, Mfold-predicted secondary structure

Sequence of Haemoglobin (Hb) (P69905 2-142, chain 1 of 2): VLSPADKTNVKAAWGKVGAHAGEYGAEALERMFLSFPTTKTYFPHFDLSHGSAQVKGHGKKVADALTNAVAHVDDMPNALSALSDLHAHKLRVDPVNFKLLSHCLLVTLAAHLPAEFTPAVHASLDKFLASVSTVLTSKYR
Sequence of Haemoglobin (Hb) (P68871 2-147, chain 2 of 2): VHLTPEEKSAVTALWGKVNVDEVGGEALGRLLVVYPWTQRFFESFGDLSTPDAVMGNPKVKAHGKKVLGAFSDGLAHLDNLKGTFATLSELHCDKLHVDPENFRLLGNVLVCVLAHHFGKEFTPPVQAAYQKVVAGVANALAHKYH

B1: Hb aptamer (II) (ssDNA)
DNA: ACGCACACCAGAGACAAGTAGCCCCCCAAACGCGGCCACGGAACGCAGCACCTCCATGGC
modifications: 5' ferrocene; 3' thiol (SH), immobilized on gold screen-printed electrode
Kd: 95.9 ± 40 µg/mL

From paper PMC8659020, “Ferrocene-Labelled Electroactive Aptamer-Based Sensors (Aptasensors) for Glycated Haemoglobin”
